Measured values taken from patent US20230129812A1, “COMPOSITIONS AND METHODS FOR TREATING PULMONARY HYPERTENSION” (Acceleron Pharma Inc., priority 2020, published 2023).

Columns and labels:
[1] = target: T1, activin A (Homo sapiens, UniProt P08476); assay: A-204 reporter gene assay, pGL3(CAGA)12 luciferase; format: cell-based; settings: Table 9; cell-based A-204 assay
T1 sequence (P08476 311-426): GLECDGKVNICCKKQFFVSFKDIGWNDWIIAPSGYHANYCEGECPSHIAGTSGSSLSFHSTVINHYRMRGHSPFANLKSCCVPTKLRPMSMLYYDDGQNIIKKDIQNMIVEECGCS
Excerpt: (§1) An A-204 reporter gene assay was used to evaluate the effects of ActRIIB-Fc proteins and ActRIIB variant Fc fusion polypeptides on signaling by GDF-11 and activin A. Cell line: human rhabdomyosarcoma (derived from muscle). Reporter vector: pGL3(CAGA)12 (described in Dennler et al, 1998, EMBO 17: 3091-3100). The CAGA12 motif is present in TGF-beta responsive genes (e.g., PAI-1 gene), so this vector is of general use for factors signaling through SMADs.
(§2) Day 1: Split A-204 cells into 48-well plate.
(§3) Day 2: A-204 cells transfected with 10 ug pGL3(CAGA)12 or pGL3(CAGA)12(10 ug)+pRLCMV (1 pg) and Fugene.
(§4) Day 3: Add factors (diluted into medium+0.1% BSA). Inhibitors need to be preincubated with factors for 1 hr before adding to cells. Six hrs later, cells were rinsed with PBS and lysed.
(§5) This is followed by a luciferase assay.
(§6) Activity of ActRIIB-Fc proteins and ActRIIB variant Fc fusion polypeptides was tested in a cell-based assay as described above. Some variants were tested in different C-terminal truncation constructs. As discussed above, truncations of five or fifteen amino acids caused reduction in activity. […]

[2] = target: T2, GDF11 (Homo sapiens, UniProt O95390); assay: A-204 reporter gene assay, pGL3(CAGA)12 luciferase; format: cell-based; settings: Table 9; cell-based A-204 assay
T2 sequence (O95390 299-407): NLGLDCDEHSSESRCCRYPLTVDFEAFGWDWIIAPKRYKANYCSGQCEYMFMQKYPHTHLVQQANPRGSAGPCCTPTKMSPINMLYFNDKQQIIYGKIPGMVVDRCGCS
Excerpt: as §1, §2, §3, §4, §5, §6

[3] = target: T2, GDF11; set-up: key: *: No observed binding; −−: <⅕ WT binding; −: ~½ WT binding; +: WT; ++: <2x increased binding; +++: ~5x increased binding; ++++: ~10x increased binding; +++++: ~40x increased binding; settings: Table 11, reproduced from WO2006/012627; cited from earlier work
[4] = target: T3, ActA (Homo sapiens, UniProt P08476); set-up: key to ActA binding relative to WT: *: No observed binding; −−: <⅕ WT binding; −: ~½ WT binding; +: WT; ++: <2x increased binding; +++: ~5x increased binding; ++++: ~10x increased binding; +++++: ~40x increased binding; settings: Table 11, reproduced from WO2006/012627; cited from earlier work
T3 sequence (P08476 311-426): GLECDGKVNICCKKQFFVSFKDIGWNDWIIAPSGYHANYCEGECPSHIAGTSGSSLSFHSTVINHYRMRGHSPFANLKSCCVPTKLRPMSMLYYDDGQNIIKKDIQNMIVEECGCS

B1: A64 20-134: ActRIIB-Fc with alanine at position 64, amino acids 20-134 of SEQ ID NO:1 (protein)
chain: GRGEAETRECIYYNANWELERTNQSGLERCEGEQDKRLHCYASWANSSGTIELVKKGCWLDDFNCYDRQECVATEENPQVYFCCCEGNFCNERFTHLPEAGGPEVTYEPPPTAPT
modifications: Fc fusion partner not cited
Activin Inhibition Activity [1]: + (Poor activity (roughly 1 × 10^−6 KI))
GDF11 Inhibition Activity [2]: + (Poor activity (roughly 1 × 10^−6 KI))

B2: R64 20-129: ActRIIB-Fc R64, amino acids 20-129 of SEQ ID NO:1 (protein)
chain: GRGEAETRECIYYNANWELERTNQSGLERCEGEQDKRLHCYASWRNSSGTIELVKKGCWLDDFNCYDRQECVATEENPQVYFCCCEGNFCNERFTHLPEAGGPEVTYEPP
modifications: Fc fusion partner not cited
Activin Inhibition Activity [1]: +++ (Good (wild-type) activity (roughly 1 × 10^−8 KI))
GDF11 Inhibition Activity [2]: +++ (Good (wild-type) activity (roughly 1 × 10^−8 KI))

B3: R64 A24N 20-119: ActRIIB-Fc variation R64 A24N, amino acids 20-119 of SEQ ID NO:1 (protein)
chain: GRGENETRECIYYNANWELERTNQSGLERCEGEQDKRLHCYASWRNSSGTIELVKKGCWLDDFNCYDRQECVATEENPQVYFCCCEGNFCNERFTHLPEA
modifications: Fc fusion partner not cited
Activin Inhibition Activity [1]: ++ (Moderate activity (roughly 1 × 10^−7 KI))
GDF11 Inhibition Activity [2]: ++ (Moderate activity (roughly 1 × 10^−7 KI))

B4: R64 A24N K74A 20-119: ActRIIB-Fc variation R64 A24N K74A, amino acids 20-119 of SEQ ID NO:1 (protein)
chain: GRGENETRECIYYNANWELERTNQSGLERCEGEQDKRLHCYASWRNSSGTIELVAKGCWLDDFNCYDRQECVATEENPQVYFCCCEGNFCNERFTHLPEA
modifications: Fc fusion partner not cited
Activin Inhibition Activity [1]: + (Poor activity (roughly 1 × 10^−6 KI))
GDF11 Inhibition Activity [2]: + (Poor activity (roughly 1 × 10^−6 KI))

B5: R64 L79P 20-134: ActRIIB-Fc variation R64 L79P, amino acids 20-134 of SEQ ID NO:1 (protein)
chain: GRGEAETRECIYYNANWELERTNQSGLERCEGEQDKRLHCYASWRNSSGTIELVKKGCWPDDFNCYDRQECVATEENPQVYFCCCEGNFCNERFTHLPEAGGPEVTYEPPPTAPT
modifications: Fc fusion partner not cited
Activin Inhibition Activity [1]: + (Poor activity (roughly 1 × 10^−6 KI))
GDF11 Inhibition Activity [2]: + (Poor activity (roughly 1 × 10^−6 KI))

B6: R64 L79P K74A 20-134: ActRIIB-Fc variation R64 L79P K74A, amino acids 20-134 of SEQ ID NO:1 (protein)
chain: GRGEAETRECIYYNANWELERTNQSGLERCEGEQDKRLHCYASWRNSSGTIELVAKGCWPDDFNCYDRQECVATEENPQVYFCCCEGNFCNERFTHLPEAGGPEVTYEPPPTAPT
modifications: Fc fusion partner not cited
Activin Inhibition Activity [1]: + (Poor activity (roughly 1 × 10^−6 KI))
GDF11 Inhibition Activity [2]: + (Poor activity (roughly 1 × 10^−6 KI))

B7: R64 P129S P130A 20-134: ActRIIB-Fc variation R64 P129S P130A, amino acids 20-134 of SEQ ID NO:1 (protein)
chain: GRGEAETRECIYYNANWELERTNQSGLERCEGEQDKRLHCYASWRNSSGTIELVKKGCWLDDFNCYDRQECVATEENPQVYFCCCEGNFCNERFTHLPEAGGPEVTYEPSATAPTGGGTHTCPPCPAPELLGGPSVFLFPPKPKDTLMISRTPEVTCVVVDVSHEDPEVKFNWYVDGVEVHNAKTKPREEQYNSTYRVVSVLTVLHQDWLNGKEYKCKVSNKALPVPIEKTISKAKGQPREPQVYTLPPSREEMTKNQVSLTCLVKGFYPSDIAVEWESNGQPENNYKTTPPVLDSDGSFFLYSKLTVDKSRWQQGNVFSCSVMHEALHNHYTQKSLSLSPGK
Activin Inhibition Activity [1]: +++ (Good (wild-type) activity (roughly 1 × 10^−8 KI))
GDF11 Inhibition Activity [2]: +++ (Good (wild-type) activity (roughly 1 × 10^−8 KI))

B8: R64N 20-134: ActRIIB-Fc variation R64N, amino acids 20-134 of SEQ ID NO:1 (protein)
chain: GRGEAETRECIYYNANWELERTNQSGLERCEGEQDKRLHCYASWNNSSGTIELVKKGCWLDDFNCYDRQECVATEENPQVYFCCCEGNFCNERFTHLPEAGGPEVTYEPPPTAPT
modifications: Fc fusion partner
Activin Inhibition Activity [1]: + (Poor activity (roughly 1 × 10^−6 KI))
GDF11 Inhibition Activity [2]: + (Poor activity (roughly 1 × 10^−6 KI))

B9: D80A: soluble ActRIIB-Fc variant, as reported in WO2006/012627 (protein)
chain: SGRGEAETRECIYYNANWELERTNQSGLERCEGEQDKRLHCYASWANSSGTIELVKKGCWLADFNCYDRQECVATEENPQVYFCCCEGNFCNERFTHLPEA
modifications: left off: a dimerising Fc or GST
GDF11 binding relative to WT [3]: *
ActA binding relative to WT [4]: *

B10: D80F: soluble ActRIIB-Fc variant, as reported in WO2006/012627 (protein)
chain: SGRGEAETRECIYYNANWELERTNQSGLERCEGEQDKRLHCYASWANSSGTIELVKKGCWLFDFNCYDRQECVATEENPQVYFCCCEGNFCNERFTHLPEA
modifications: left off: a dimerising Fc or GST
GDF11 binding relative to WT [3]: *
ActA binding relative to WT [4]: *

B11: D80G: soluble ActRIIB-Fc variant, as reported in WO2006/012627 (protein)
chain: SGRGEAETRECIYYNANWELERTNQSGLERCEGEQDKRLHCYASWANSSGTIELVKKGCWLGDFNCYDRQECVATEENPQVYFCCCEGNFCNERFTHLPEA
modifications: left off: a dimerising Fc or GST
GDF11 binding relative to WT [3]: *
ActA binding relative to WT [4]: *

B12: D80M: soluble ActRIIB-Fc variant, as reported in WO2006/012627 (protein)
chain: SGRGEAETRECIYYNANWELERTNQSGLERCEGEQDKRLHCYASWANSSGTIELVKKGCWLMDFNCYDRQECVATEENPQVYFCCCEGNFCNERFTHLPEA
modifications: left off: a dimerising Fc or GST
GDF11 binding relative to WT [3]: *
ActA binding relative to WT [4]: *

B13: D80N: soluble ActRIIB-Fc variant, as reported in WO2006/012627 (protein)
chain: SGRGEAETRECIYYNANWELERTNQSGLERCEGEQDKRLHCYASWANSSGTIELVKKGCWLNDFNCYDRQECVATEENPQVYFCCCEGNFCNERFTHLPEA
modifications: left off: a dimerising Fc or GST
GDF11 binding relative to WT [3]: *
ActA binding relative to WT [4]: *

B14: F82A: soluble ActRIIB-Fc variant, as reported in WO2006/012627 (protein)
chain: SGRGEAETRECIYYNANWELERTNQSGLERCEGEQDKRLHCYASWANSSGTIELVKKGCWLDDANCYDRQECVATEENPQVYFCCCEGNFCNERFTHLPEA
modifications: left off: a dimerising Fc or GST
GDF11 binding relative to WT [3]: − (~½ WT binding)
ActA binding relative to WT [4]: ++ (<2x increased binding)

B15: WT (64A): soluble ActRIIB-Fc, wild type with 64A, as reported in WO2006/012627 (protein)
chain: SGRGEAETRECIYYNANWELERTNQSGLERCEGEQDKRLHCYASWANSSGTIELVKKGCWLDDFNCYDRQECVATEENPQVYFCCCEGNFCNERFTHLPEA
modifications: left off: a dimerising Fc or GST
GDF11 binding relative to WT [3]: (+)
ActA binding relative to WT [4]: (+)
